{"source": "paper PMC9352680", "about": "“A comprehensive thermodynamic model for RNA binding by the Saccharomyces cerevisiae Pumilio protein PUF4”", "data": [{"target": "T1, PUF4 RNA-binding domain (Saccharomyces cerevisiae, UniProt P25339 537-888)", "T1 sequence": "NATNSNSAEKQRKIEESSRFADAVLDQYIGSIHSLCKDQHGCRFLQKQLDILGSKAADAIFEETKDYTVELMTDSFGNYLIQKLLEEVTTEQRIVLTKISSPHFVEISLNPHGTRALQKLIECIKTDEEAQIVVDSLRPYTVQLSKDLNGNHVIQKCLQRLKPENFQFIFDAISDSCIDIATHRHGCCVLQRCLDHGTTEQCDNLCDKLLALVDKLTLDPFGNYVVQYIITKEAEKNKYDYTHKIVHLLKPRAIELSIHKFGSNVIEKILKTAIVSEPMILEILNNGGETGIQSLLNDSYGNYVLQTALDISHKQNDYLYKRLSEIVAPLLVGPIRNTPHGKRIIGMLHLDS", "assay": "Mg; RNA-MaP; 20 mM Na-HEPES pH 7.4, 30 mM KOAc, 0.75 mM MgCl2, 0.1% Tween-20, 5% glycerol, 0.1 mg/mL BSA, 2 mM DTT; 25 C; 0.0125-409.6 nM protein", "settings": "tags: N-His6-TEV cleaved; C-SNAP kept, Cy3B-labelled; label: tethered on chip by stalled RNA polymerase", "units": {"Kd": "nM"}, "values": [{"binder": "UCUCUUUUUGUAUAUACUUCUCUU (ssRNA)", "note": "[Id_ii_S1_P3E.2_K3.1_C3.2_[C-2T]_H3.1_A3.1_F3.1_T3.2_[T9C]_[A10T]]", "Kd": 10.2}, {"binder": "UCUCUUUCUGUAUAUACUUCUCUU (ssRNA)", "note": "[Id_ii_S1_P3E.2_K3.1_C3.2_[C-2T]_[T-1C]_H3.1_A3.1_F3.1_T3.2_[T9C]_[A10T]]", "Kd": 9.31}, {"binder": "UCUCUUUUUGUAUAUAAAUCUCUU (ssRNA)", "note": "[Id_ii_S1_P3E.2_K3.1_C3.2_[C-2T]_H3.1_A3.1_F3.1_T3.2_[T9A]]", "Kd": 10.5}, {"binder": "UCUCUUUAUGUAUAUAACUCUCUU (ssRNA)", "note": "[Id_ii_S1_P3E.2_K3.1_C3.2_[C-2T]_[T-1A]_H3.1_A3.1_F3.1_T3.2_[T9A]_[A10C]]", "Kd": 13}, {"binder": "UCUCUUUGUGUAUAUAAUUCUCUU (ssRNA)", "note": "[Id_ii_S1_P3E.2_K3.1_C3.2_[C-2T]_[T-1G]_H3.1_A3.1_F3.1_T3.2_[T9A]_[A10T]]", "Kd": 9.46}, {"binder": "UCUCUUUUCAUAUUAUCUCUU (ssRNA)", "note": "[Ib_S1_P4E.1_K4.1_C4.1_H4.1_[G2T]_[T3C]_A4.1_F4.1_T4.1]", "Kd": "> 2300"}, {"binder": "UCUCUUUCUGUAUAUAUUUCUCUU (ssRNA)", "note": "[Id_ii_S1_P3E.2_K3.1_C3.2_[C-2T]_[T-1C]_H3.1_A3.1_F3.1_T3.2_[A10T]]", "Kd": 5.64}, {"binder": "UCUCUUUAUGUAUAUAGCUCUCUU (ssRNA)", "note": "[Id_ii_S1_P3E.2_K3.1_C3.2_[C-2T]_[T-1A]_H3.1_A3.1_F3.1_T3.2_[T9G]_[A10C]]", "Kd": 6.81}, {"binder": "UCUCUUGGUGUAUAUAGUUCUCUU (ssRNA)", "note": "[Id_ii_S1_P3E.2_K3.1_C3.2_[C-2G]_[T-1G]_H3.1_A3.1_F3.1_T3.2_[T9G]_[A10T]]", "Kd": 6.96}, {"binder": "UCUCUUUCUGUAUAUAACUCUCUU (ssRNA)", "note": "[Id_ii_S1_P3E.2_K3.1_C3.2_[C-2T]_[T-1C]_H3.1_A3.1_F3.1_T3.2_[T9A]_[A10C]]", "Kd": 5.55}, {"binder": "UCUCUUUAUGUAUAUAGUUCUCUU (ssRNA)", "note": "[Id_ii_S1_P3E.2_K3.1_C3.2_[C-2T]_[T-1A]_H3.1_A3.1_F3.1_T3.2_[T9G]_[A10T]]", "Kd": 6.42}, {"binder": "UCUCUUGCUGUAUAUAAAUCUCUU (ssRNA)", "note": "[Id_ii_S1_P3E.2_K3.1_C3.2_[C-2G]_[T-1C]_H3.1_A3.1_F3.1_T3.2_[T9A]]", "Kd": 15.5}, {"binder": "UCUCUUUAAAUAUUAUCUCUU (ssRNA)", "note": "[Ib_S1_P4E.1_K4.1_C4.1_H4.1_[G2A]_[T3A]_A4.1_F4.1_T4.1]", "Kd": "> 2300"}, {"binder": "UCUCUUGGUGUAUAUAUUUCUCUU (ssRNA)", "note": "[Id_ii_S1_P3E.2_K3.1_C3.2_[C-2G]_[T-1G]_H3.1_A3.1_F3.1_T3.2_[A10T]]", "Kd": 15.2}, {"binder": "UCUCUUGCUGUAUAUAAUUCUCUU (ssRNA)", "note": "[Id_ii_S1_P3E.2_K3.1_C3.2_[C-2G]_[T-1C]_H3.1_A3.1_F3.1_T3.2_[T9A]_[A10T]]", "Kd": 12.4}, {"binder": "UCUCUUUCUGUAUAUAUCUCUCUU (ssRNA)", "note": "[Id_ii_S1_P3E.2_K3.1_C3.2_[C-2T]_[T-1C]_H3.1_A3.1_F3.1_T3.2_[A10C]]", "Kd": 5.38}, {"binder": "UCUCUUUCUGUAUAUACAUCUCUU (ssRNA)", "note": "[Id_ii_S1_P3E.2_K3.1_C3.2_[C-2T]_[T-1C]_H3.1_A3.1_F3.1_T3.2_[T9C]]", "Kd": 23}, {"binder": "UCUCUUUUUGUAUAUAGUUCUCUU (ssRNA)", "note": "[Id_ii_S1_P3E.2_K3.1_C3.2_[C-2T]_H3.1_A3.1_F3.1_T3.2_[T9G]_[A10T]]", "Kd": 4.16}, {"binder": "UCUCUUUGUGUAUAUAUGUCUCUU (ssRNA)", "note": "[Id_ii_S1_P3E.2_K3.1_C3.2_[C-2T]_[T-1G]_H3.1_A3.1_F3.1_T3.2_[A10G]]", "Kd": 8.9}, {"binder": "UCUCUUGUUGUAUAUAUCUCUCUU (ssRNA)", "note": "[Id_ii_S1_P3E.2_K3.1_C3.2_[C-2G]_H3.1_A3.1_F3.1_T3.2_[A10C]]", "Kd": 8.36}, {"binder": "UCUCUUGUUGUAUAUAUUUCUCUU (ssRNA)", "note": "[Id_ii_S1_P3E.2_K3.1_C3.2_[C-2G]_H3.1_A3.1_F3.1_T3.2_[A10T]]", "Kd": 8}, {"binder": "UCUCUUUAUGUAUAUACCUCUCUU (ssRNA)", "note": "[Id_ii_S1_P3E.2_K3.1_C3.2_[C-2T]_[T-1A]_H3.1_A3.1_F3.1_T3.2_[T9C]_[A10C]]", "Kd": 15.5}, {"binder": "UCUCUUUCUGUAUAUAAGUCUCUU (ssRNA)", "note": "[Id_ii_S1_P3E.2_K3.1_C3.2_[C-2T]_[T-1C]_H3.1_A3.1_F3.1_T3.2_[T9A]_[A10G]]", "Kd": 6.84}, {"binder": "UCUCUUUAUGUAUAUAUUUCUCUU (ssRNA)", "note": "[Id_ii_S1_P3E.2_K3.1_C3.2_[C-2T]_[T-1A]_H3.1_A3.1_F3.1_T3.2_[A10T]]", "Kd": 9.19}, {"binder": "UCUCUUUGUGUAUAUAGUUCUCUU (ssRNA)", "note": "[Id_ii_S1_P3E.2_K3.1_C3.2_[C-2T]_[T-1G]_H3.1_A3.1_F3.1_T3.2_[T9G]_[A10T]]", "Kd": 6.29}, {"binder": "UCUCUUGUUGUAUAUAUAUCUCUU (ssRNA)", "note": "[Id_ii_S1_P3E.2_K3.1_C3.2_[C-2G]_H3.1_A3.1_F3.1_T3.2]", "Kd": 5.16}, {"binder": "UCUCUUGUUGUAUAUAGUUCUCUU (ssRNA)", "note": "[Id_ii_S1_P3E.2_K3.1_C3.2_[C-2G]_H3.1_A3.1_F3.1_T3.2_[T9G]_[A10T]]", "Kd": 4.57}, {"binder": "UCUCUUGUUGUAUAUACCUCUCUU (ssRNA)", "note": "[Id_ii_S1_P3E.2_K3.1_C3.2_[C-2G]_H3.1_A3.1_F3.1_T3.2_[T9C]_[A10C]]", "Kd": 20.1}, {"binder": "UCUCUUAGUUUAUUAUCUCUU (ssRNA)", "note": "[Ib_S1_P4E.1_K4.1_C4.1_H4.1_[T1A]_[A4T]_A4.1_F4.1_T4.1]", "Kd": "> 2300"}, {"binder": "UCUCUUCGUUUAUUAUCUCUU (ssRNA)", "note": "[Ib_S1_P4E.1_K4.1_C4.1_H4.1_[T1C]_[A4T]_A4.1_F4.1_T4.1]", "Kd": "> 2300"}, {"binder": "UCUCUUUAUGUAUAUACUUCUCUU (ssRNA)", "note": "[Id_ii_S1_P3E.2_K3.1_C3.2_[C-2T]_[T-1A]_H3.1_A3.1_F3.1_T3.2_[T9C]_[A10T]]", "Kd": 15.1}]}]}
